Laboratory results taken from PMC11602157, “ZNF512B binds RBBP4 via a variant NuRD interaction motif and aggregates chromatin in a NuRD complex-independent manner” (Nucleic Acids Research, 2024).
Positions count from the first letter of the chain named. In names and notes the source's numbering stands.

B1: His-ZNF512B: purified recombinant His-ZNF512B protein (protein, UniProt Q96KM6 1-892, looked up)
Zinc finger protein 512B: MTDPFCVGGRRLPGSSKSGPGKDGSRKEVRLPMLHDPPKMGMPVVRGGQTVPGQAPLCFDPGSPASDKTEGKKKGRPKAENQALRDIPLSLMNDWKDEFKAHSRVKCPNSGCWLEFPSIYGLKYHYQRCQGGAISDRLAFPCPFCEAAFTSKTQLEKHRIWNHMDRPLPASKPGPISRPVTISRPVGVSKPIGVSKPVTIGKPVGVSKPIGISKPVSVGRPMPVTKAIPVTRPVPVTKPVTVSRPMPVTKAMPVTKPITVTKSVPVTKPVPVTKPITVTKLVTVTKPVPVTKPVTVSRPIVVSKPVTVSRPIAISRHTPPCKMVLLTRSENKAPRATGRNSGKKRAADSLDTCPIPPKQARPENGEYGPSSMGQSSAFQLSADTSSGSLSPGSRPSGGMEALKAAGPASPPEEDPERTKHRRKQKTPKKFTGEQPSISGTFGLKGLVKAEDKARVHRSKKQEGPGPEDARKKVPAAPITVSKEAPAPVAHPAPGGPEEQWQRAIHERGEAVCPTCNVVTRKTLVGLKKHMEVCQKLQDALKCQHCRKQFKSKAGLNYHTMAEHSAKPSDAEASEGGEQEERERLRKVLKQMGRLRCPQEGCGAAFSSLMGYQYHQRRCGKPPCEVDSPSFPCTHCGKTYRSKAGHDYHVRSEHTAPPPEEPTDKSPEAEDPLGVERTPSGRVRRTSAQVAVFHLQEIAEDELARDWTKRRMKDDLVPETARLNYTRPGLPTLNPQLLEAWKNEVKEKGHVNCPNDCCEAIYSSVSGLKAHLASCSKGAHLAGKYRCLLCPKEFSSESGVKYHILKTHAENWFRTSADPPPKHRSQDSLVPKKEKKKNLAGGKKRGRKPKERTPEEPVAKLPPRRDDWPPGCRDKGARGSTGRKVGVSKAPEK
modifications: His tag
notes: purified recombinant His-ZNF512B protein
B2: K423A: GAL-ZNF512B with K423A mutation, loss of NuRD binding (protein)
chain: B1 Zinc finger protein 512B with K423A
modifications: left off: GFP, end not stated, kept
B3: ZNF512B: zinc finger protein 512B; GAL-ZNF512B in the reporter assay, GFP-/FLAG-tagged in pull-downs (protein)
chain: B1 Zinc finger protein 512B
modifications: left off: GFP, end not stated, kept

Assays:
[1] = system: DNA (sequence derived from the mouse H19 promoter); test: EMSA; type: binding; settings: purified recombinant protein, unmethylated or methylated oligos, 300 ng salmon sperm DNA competitor
Protocol: Expression and purification of recombinant His-ZNF512B protein was done as described ([32]). Briefly, pFastBac1 vectors were transformed into DH10Bac bacteria and viruses were generated according to the Bac-to-Bac™ Baculovirus Expression System Protocol (Invitrogen). Extracts were prepared 3 days after infection by washing the cells twice with ice cold PBS and incubation on ice for 10 min in hypotonic buffer (10 mM HEPES-KOH pH 7.9, 1.5 mM MgCl2, 10 mM KCl). After brief vortexing and centrifugation, the pellet (nuclei) was incubated for 20 min in hypertonic buffer (20 mM HEPES-KOH pH 7.9, 25% glycerol, 420 mM NaCl, 1.5 mM MgCl2, 0.2 mM EDTA). After centrifugation for 10 min at 16 000 × g the supernatant was stored at −20°C or directly used for electrophoretic mobility shift assays (EMSAs). Alternatively, the supernatant was purified by FPLC using the Äkta Start (Cytiva) via a His-Trap column (71502768) by standard procedures outlined in the instructions of the manufacturer.
EMSAs were performed as originally described ([34]) with the exception that 300 ng of salmon sperm DNA per reaction were used as an unspecific competitor. […]

[2] = system: 4xUAS-tk-luc reporter in HEK293T cells; test: Luciferase reporter assay; type: cell-based; settings: GAL fusion, 72 h, three biological replicates
Protocol: Per well of a 6-well plate, 1.5 × 10^5 HEK293T cells were seeded and transfected on the next day using 1 μg of 4xUAS-tk-luc reporter plasmid, 0.5 μg GAL expression vector and 0.5 μg pCMV-lacZ vector for normalization. Cells were directly lysed in well after 72 h with 200 μl Lysis buffer (25 mM Tris/Cl pH 7.5, 8 mM MgCl2, 1 mM EDTA, 1% Triton™ X-100, 15% glycerin, 1 mM DTT) for 15 min at RT. Supernatants were used to measure luciferase activity by mixing 100 μl 1:1 with 90 mg/L D-Luciferin/0.8 mM ATP and quantifying emitted light after 5 s incubation with an Orion L plate reader (Titertek-Berthold). Values were normalized to β-galactosidase activity by adding 5 μL supernatant to 900 μl LacZ buffer (50 mM Na2HPO4, 10 mM KCl, 0.1 mM MgSO4, pH 7) and 100 μl 4 g/L OPNG/0.1 M KPO4. When a color change of the mixture occurred, absorbance at 420 nm was measured.

FLAG-tagged ZNF512B = test: Oligomerization: GFP-Trap IP and FLAG immunoblot; type: binding; settings: co-transfection of GFP- and FLAG-tagged ZNF512B constructs, HeLaK cells
Protocol: Preparation of DNase-digested cell extracts and immunoprecipitation was performed using GFP-Trap® Magnetic Particles M-270 (Chromotek) following the manufacturer’s protocol. In brief, cells were incubated for 30 min on ice with RIPA buffer (10 mM Tris/Cl pH 7.5, 150 mM NaCl, 0.5 mM EDTA, 0.1% SDS, 1% Triton™ X-100, 1% deoxycholate) supplemented with DNase I (75 Kunitz U/ml, Thermo Fisher Scientific) and MgCl2 (2.5 mM). After centrifugation at 17 000 × g for 10 min at 4°C, lysate was transferred to a fresh tube and mixed with Dilution buffer (10 mM Tris/Cl pH 7.5, 150 mM NaCl, 0.5 mM EDTA). Lysate was then incubated with GFP-Trap® Magnetic Particles M-270 rotating for 1 h at 4°C. For peptide competition, lysate was incubated with peptide solution rotating for 1 h at 4°C before incubation with beads. After incubation, beads were washed three times with Wash buffer (10 mM Tris/Cl pH 7.5, 150 mM NaCl, 0.05% Nonidet™ P-40 Substitute, 0.5 mM EDTA), and precipitated proteins were eluted by boiling beads for 5 min in 2× SDS-sample buffer. Eluates were compared to input material via semi-dry western blotting. Details on applied antibodies and peptides are listed in the Supplementary Data.

NuRD complex members = test: lf-qMS after GFP-Trap IP; type: binding; settings: GFP-Trap IP vs GFP
Protocol: Preparation of Micrococcal nuclease (MNase)-digested nuclear extracts was performed as previously described ([15–17],[32]). Briefly, nuclei were isolated by incubation with PBS containing 0.3% Triton™ X-100 for 10 min at 4°C and washed in PBS, before being resolved in 500 μl freshly prepared Ex100 buffer (10 mM HEPES pH 7.6, 100 mM NaCl, 1.5 mM MgCl2, 0.5 mM EGTA, 10% glycerol, 10 mM β-glycerol phosphate, 1 mM Dithiothreitol (DTT), 2 mM CaCl2). Chromatin was then digested with 1.5 U MNase (sufficient for 4 × 10^7 cells, Sigma-Aldrich) for 20 min at 26°C. Digestion was stopped by adding 10 mM EGTA and transferring the sample to 4°C. […]
For label-free quantitative mass spectrometry (lf-qMS), precipitated proteins were eluted by incubation of beads with Elution Buffer (2 M urea, 50 mM Tris/Cl pH 7.5, 2 mM DTT, 20 μg/ml Trypsin Gold [Promega]) for 30 min at 37°C shaking at 1400 rpm in the dark. […]
After tryptic digest (see MNase IP), peptides were desalted on StageTips ([36]) and analysed by nanoflow liquid chromatography on an EASY-nLC 1000 system (Thermo Fisher Scientific) coupled online to a Q Exactive Plus mass spectrometer (Thermo Fisher Scientific). […]
The raw files were processed with MaxQuant ([37]) (version 1.6.5.0) against a human uniprot database (81194 entries). […] The match between run option and the LFQ quantitation were activated. […]

| Molecule | DNA binding [1] | repression of luciferase reporter [2] | oligomer formation (FLAG-tagged ZNF512B) | binding to NuRD complex members by lf-qMS (NuRD complex members) |
| --- | --- | --- | --- | --- |
| B1 | DNA-binding protein (Figure 2F), independent of DNA methylation status |  |  |  |
| B2 |  | over 50% |  |  |
| B3 |  | strong repression effect | able to form oligomers that are strictly dependent on the ZF domains | NIM-dependent binding of ZNF512B to all known NuRD complex members was observed |
